According to the DeepSol protein solubility set:

assay: soluble on expression in E. coli; label from the status in PepcDB or PDB records

Row | Sequence | soluble on expression in E. coli
1 | MLSAWFSGKYSVLKDENGYVFLDRDGDRFRHILNYLRCGTVHIGEDIRLLGEILEEAEYFGLQSLAQQLKEALLQCRVKQEEKESSVCGRMNNEDNLFHPMFEPLDGFSSSQTSQGEPLLTLLPSSQEFRLDEDF | soluble
2 | VTVSTSTARSADDSDHSSEVARPTDSRRDPEVLREALQRWLAAQLPPDAAPEVTHVHLPDANGMSSETILFDATWSGEVHPLVARVAPADTTMPVFPEYDLDGQFQVMAQVREHSAVPVPVVYWSESDPGPLGAPFFVMARVSGQVPPDVMPYNFGSWVTEATEEQRALLQHSAVNVLAQLHDIDRPWERFAFLQLPGSGPTVTEALAAHIRQQRDYYEWTTLSGPRSPLIERGFAWMEDNLPDDPSPAVFCWGDARIGNMMFEDFRPVAVLDWEMATLGPRELDLGWMTYLHRFFEDIAASAGLDGMPDFLRLDDLAALYEELTGHTPRDLEYYTAYAALRQATIMLRIQERAIHFGQAVAPEDPDDMIMHRASLEAMLDGTYWEKIR | not soluble
3 | SASWLPETLFEIVGQGPAPSKDYYQLLITRTQIIFRWWKISLRSEYRSAKPGETKESHEDFLDNSHLQVQVAVVFGTKILDYVFNLCEGKFDYLERLSDRLLLKIICYLDLEDIASLSQTSSKFEKLCKSDLLWEQIVQSTCDTITPDMRALAKNMGWRQMFLTNNIQLQRQTRKKKQRQENQAEKLA | soluble
4 | MLTFVSPVFGAPKKRKWFSKLSGKQLCCFRCVSCLQVEQPSRSHPNYWRNIAREVNKTLKEHSLEANNPINVTDEDSSVFVDTTTDEREEGGPTFIQQSSRVQLDSAEISHSNSMTTDSHSLYQNNSPNSTGMEEEPSDYSVQFSTSWNPNTSWLQFPDLVESADIRRKTQEISKHQKEDVFKYYIDSENNLRPFHDAISPMHIFSKESETQTVSEPSAWENWHQLSQKGNEDSSSLDESLDDEWSEIDRWRPVAVELEGYNPKLTEDTSEEVRIEKNKLSKRREAVAWQKWFSTQQYNLSSELWERRIGVTGKDCDKNTSIYKQWLADMEQGLEP | not soluble
5 | MGSDKIHHHHHHMPNMGIEKLYVSQQLTDSAAGMTFTKPQYYKYVQELSLKPKVNSASAYAENRKVDQDTQFDSCDVSINLFQMTSSQRAFMLGQSLAGGGGAIGALNDKAPWITLLYKAPIKVDDTIYYRYGVIYKTQFQPPDDDYKTTEGKPDFSQVPKISGSAQPTEWSFKDGKLEKHPWEWHVDTCDPNCPENIDDTWFNSVSIPSLVTYGSLSLSASSPKDGATGISLDTKPSLTFNNPIMNATSILLYNVSDGATVNTTTSSDSSGKIITITPSTNLVANKNYVLVVQDVTDLYGQTLDTQLIRFTTATAAS | not soluble
6 | MHSEVTPIHHYKKYWAECFGTAPFLPTSREEMDQLGWDSCDVIIVTGDAYVDHPSFGMAIIGRLLEAQGFRVGIIAQPEWQTKDAFMTLGKPNLFFGVTAGNMDSMINRYTADKKIRHDDAYTPNNKGGMRPDRCSLVYSQRCREAYKDVPIVLGGIEASLRRVAHYDYWSDKVRRSILLDAKADILLFGNAERALVEVAHRLANGESINKMVDIRGTAVNLAQVPEHFKIIDSTRIDQPNKPFVPSNPYEVETQCATKGDEKEEAQPITIRPSRHDAKTTAVRLPSFEKLVNDRILYAHASRVLHLETNPYSGRALVQRHGDRELWVNQAPIPLTTEEMDFVFGLYYARVPHPKYGDAKIPAYDMIKTS | soluble
7 | MGSDKIHHHHHHMFVGASEFRLTDAEHGLSFPVLVMYPTRQLPSRHAFGPYLMDVSMNAPIAGGQHPLILVSHGSGGSHLLYRTMTAHLAQHGYVVAMIEHPGNNRVDNQFMGKVENLQYRPRHLRLTADALYGDAVLGPHLQAGRIGVIGHSMGGYTALALAGGTPWYPPEAFQPDYRGPAPAVVDVEHDDRVKALVLLAPATVWFMPEHALEDVDVPILMLSAEHDPYTPAWHGEIVRKGVRDPANVTSRCVKNAGHFSFLSPFPPKIKQGGALPTIDPEGFDRERFHEQLKQEILAYFNLRLKTAPA | not soluble
8 | MRACLKCKYLTNDEICPICHSPTSENWIGLLIVINPEKSEIAKKAGIDIKGKYALSVKE | soluble
9 | GPGSMASQPGDALGKIEYWVQYIDCALKHPRPLPAGKHAHRQSLETIPEVAELYHCIYKLYNEEESSVWFREPVNALAQEIFTYYDVVKSPMSLRHILDNIVKGDTYSTALQVMEDVELIWKNCITFNGANSLLATEAGKCRSALDRIRRAYQDDQRITVEEAERLFRVISSMQEQQLIDNIAEYLRRDDPTSIDETGAVNFDMLKRKHFRNLERIVDNYSKSRTRS | soluble
10 | MSLNASPQEDAGPEPVVYLVDDQQAELDLLQRWCSQEGLKTETFNQAEDLLKLLHADSHGCVVADLRMPRLSGLELQAEMSRRELTIPVILVTGHGDAENCRAAFQQGVFDFIEKGFRHEEILHAINSAIRKHRRDRFRHQVRKEALDLLRKISPRETEVMLLLAGGSPLKGIAQELSISVQTASKHRGSIFTKLNIDNEVDLYKMLLAAEVNLDVGEGHHHHHH | soluble
11 | MSLNARTNIALLANSSSPLHPLQELLAVAGYQCNVFHAGRDLIQGLGHDTYEMLLIDRELADISAIDVIRTVRAVRNRDVPIVIFASENNDDDLVEALDAGADDYVLRPLAARVLLARIAALRRRMSGTRLRGAMPLRAGPYELSNPGRYATLNGGRIPMTPKEFDLAMLMFANAGRILASRRIEHTIWGHDLPPYSRALAGLVSRMRRTLNLCAENGVTVSVVYAQGYRLDILDEGHHHHHH | not soluble
12 | MAHHHHHHMYVAIYNIGKKKNIGSIVRSCVAFRVSKIFVVSRKKNQVNFFGHMGTCEYITIEYFSSMKELKTHLRDNGILLYACEITSSAVPVTRRPFENKDTAFLFGNEGTGINDETLSYCDKVVYIPQYGNGTCSLNVSVSCAIILHHFAVWADYPEVGISGKKFVLNKCATKLERYLNPSDDLLRQISEKRAQRAATKLASPDWAAPHFADPSPDLFPG | not soluble
13 | MRQALPLVTRQGDRIAIVSGLRTPFARQATAFHGIPAVDLGKMVVGELLARSEIPADAIEQLVFGQVVQMPEAPNIAREIVLGTGMNVHTDAYSVSRACATSFQAVANVAESLMAGTIRAGIAGGADSSSVLPIGVSKALARVLVDVNKARTTRQRLTLFSRLRLRDLLPVPPAVAEYSTGLRMGDTAEQMAKTYGITREQQDALAHRSHQRAAQAWAEGKLAEEVMTTYVPPYKNPFAEDNNIRGASTLADYAKLRPAFDRKHGSVTAANSTPLTDGAAAVILMTESRAKELGLRPLGYLRTYAFTAIDVWQDMLLGPAWSTPLALERAGLTMADLTLFDMHEAFAAQTLANLQLLGSERFAREVLGCAQATGEVDDAKFNVLGGSIAYGHPFAATGARMITQTLHELRRRGGGFGLVTACAAGGLGAAMVLEAE | not soluble
14 | MGSDKIHHHHHHMPKQTFFNLKDEKRQRIIDAAEREFSQCPLYESSINNIIKDAKIPRGSFYQYFDDLSDLYGYYFSLILEDIQENLIDSVQEADGDIFSAVKKYAGEYMKEIISGNHRDFYRNFFLGANISKRSKDGKHPGFDVYHSDRMKELRVNLKKEVNWKLLKVTNEKDQNMIQQLIMMIFFHSFANYFVHSNNTDSDPAEVQKEIERNLNWLEFGARRTEDK | not soluble
15 | MDIGDHGTHCAGIIAGFGPNVKIASLKHLSGNKFKDLDNWVSTMIKAINYADAMDIKIVNVSLGLHKSQIGDRPFDSQALNDAISNADLLFVTAAGNFNKNIDLPDDVIYPASCTAENIITVANTDKDDKLYESSNYGVISVDLAAPGTDIRSTIPTHLAGEGGPYDIKTGTSMSAPHVAGAAALLLSSNPSLTTQQLKDLILSSVDFLPDLQGKVATSGRLNVAKALRKIRTSVKIGDIDGNGEISSIDYAILKSHLINSNLTFKQLAAADVDGNGYVNSIDLAILQMYLLGKGGTSDIGKNRIYTYGDIDNNGIVDENDYILICNHINGTGQLSDASLFAADADGNNVIDQTDRILIEKYITGRITHLPVGNQ | not soluble
16 | MGSDKIHHHHHHMKVLVTGATGFIGRQVVHRLREAGAELRLASRHPERLGPGQDAMRMPDVDAPTAAFLALARGVTDVVHCAGLNNDEGNATEADFRAANAELSARLAQAAAEQASGRFIQLSSIRAVIGARVSATIDEDTIPDPQCAYGRSKREAEIRVLDAYASHGRSDATVLRLPPVYGTGMQGNLATLMRMADTGLPLPTGALTGTRSLLSAQSTAGAIWHLLSLSGRLRPIHVASDVPPVSIADIVDAFRDGFGRPTRLMAVPAGPLRIAAILLGKRTSWDSLTASQICDPSLLVSEGWLPETGTLERLAEIARLGDAQSPPLR | not soluble
17 | MNGGTFTTGKEKERAGIYFNFKTTAQERVSLSERGTVALPVASSWGEAKTFVSISSVEDLNKKVGLSIDDPSLLLLREAKKNAKTVLMYRLTEGVRASADIAEGVKATAVYGGTKGNDIIIRINQNVLDANSFDVTTYMDESEVDKQTVKKAEELTANGYVTFTGTGDLSSTIPLTGSEGDTAAETLNASAGIRLSGGTDKAPVNSDYTDFLAAAETESFDVIALPVAEGDQLKATFAAFIKRLRDGQGQKVQGVTANYAGDYEGIINVTEGVLLEDGTEVTPDKATAWVAGASAGATFNQSLTFVEYEGAVDVLHRLDHDTIVERLGKGEFLFTFDARDKSVSVEKDINSLVTFTAEKNKKFAKNKIVRVLDAVNNDLTRELKALIKSRKGSGSDIPASEDGLQYVKTMITQYMTTLQDAGGITGFDSDEDITISMNEDRDGFLIDLLYSLSTQQKNSTLMWRLEHHHHHH | soluble
18 | MSLLYKKHSLHNIGRWVTNNSFFRKSGRIAVSTFNVAKFGGTSVANFEAMSRCSAIIENNPQTRLVVSSACSGVTNLLVELANGVASTERRQAILQQLADIHYVIIDQLADPTRVEKEVKAVLDSVASAAEAASFQSSKKLTDHLVACGELISTYILTQLMRERGVDAVRFDIREVLRTDDHYGRAEPQLKEIAQLAKEKLVPLCEQYVVVTQGFIGSDAQGNTTTLGRGGSDYSAALIAEAVQASGLEIWTDVPGIYSTDPRIAPKAAPIPEISFSEASEMANFGAKILHPSTLLPAVRHGIPVFVGSSKEPEKGGTWIRKQVESAPLYRALALRCNQTMVTLRSAQMFHAYGFLAKVFEILAKHKISVDLITTSEISVSLTLDKTDTSGGAPELPEAVRAELEELCTVEVEYNLCLIALIGNKMKESRGYAKQVFSVLEDYNLRMICYGASAHNLCFLLHESVSKQAVQKLHKELFEQEEGHHHHHH | soluble
19 | MRWNRMNPFGSYKKVVSARSTLKEVLKKAQDGGIVSTAFIYGLENNLLDGVIVADNAGEFKAVPKVATTPEEVLEAAGTKYTVCPNISVLKSAVREYGCEKIGVVGTPCQVRAVRKLMKYPVGFRHVPDKIALIIGIFCMENFPYYGLKLIVEEHCGVKMEDVVKMDIGKGKFWVYTRWGETKAIKLKETHPYEQIACHVCTDYTAELADISTGSVGSPDGWSTVFIRTAKGEEIFNKMVEDGYLEVKPIEEVKPGLGLVEKLALQKKEKNMKEIEHRKELGLPIPYLEHHHHHH | soluble
20 | MQLKRVAEAKLPTPLGDFLMVGFEELATGHDHAALVFGDISGKTPVLARVHSECLTGDALFSLRCDCGFQLEAALTHIAEEGRGILIYHRQEGRNIGLLNKIRAYALQDQGYDTVEANHQLGFAADERDFTLCADMFKLLGVDEVRLLTNNPKKVEILTEAGINIVERVPLIVGRNPNNEHYLDTKAAKMGHLLSKLEHHHHHH | soluble
